# Measured values published in the supplement of paper PMC12636428.
# Tested on: Saccharomyces cerevisiae
# Assay: transcriptional activation domain activity (GFP:mCherry ratio, weighted mean of sorted bins, harmonized to initial dataset scale) (arbitrary fluorescence ratio units); higher = stronger transcriptional activation
# Conditions: beta-estradiol 1 µM; induction time 4 h
# Summary of the method: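 Barcoded protein tiles fused to an estradiol-inducible synthetic transcription factor were integrated at the yeast URA3 locus, in diploids carrying a GFP reporter. Cultures were diluted 1:5 into SC with 1 uM beta-estradiol, held 4 hours at 30 °C, sorted into 8 bins by GFP:mCherry ratio, and barcodes sequenced. Tiles under 50 reads were discarded. Activation activity is the read-weighted mean of bin median fluorescence, averaged across barcodes, then linearly mapped onto the initial dataset scale.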
row,Sequence,transcriptional activation domain activity
1,MISFPLFDPVVFNPFLFYDILSSFCSCFSFFFSLLFFPILQYPFLFFSCFFIA,60100
2,MISFVSIVSILLAKSAFLFYFLRQDSFLPNLVFCLCISLLLLLVCLLQWLLVC,53700
3,MISIAGFYLFFLGYWRFWMLFINLIVGLLATIGHHVSGLACLIFFCGSSVRIS,35300
4,MISIPFPFHFIFKYVWWYYHVLYCLLACLLACCSCTYMFYLPVLLMLLLLFGC,41900
5,MISLFFFLFLYHIYVFLLLLLLYFLPSLPYPPIYTLYIVSLIIPHLVYLLQNS,31400
6,MISLVYTGVDGEFGMLFGFGFWFCFLMGRRFTVFVFVFLDMFWGHVFCFVCIS,45600
7,MISPFHFQSLFFILFLLFFLCAWCSGWAGLRFFTPHLVSIFFLFMDWQLDLVG,48500
8,MISPIFPRNLIIHNITFSMLFSFFSFLFYTLYALFNFPVPFFLSSILTPLNIF,71200
9,MISSAKLTLFAFFRSMQMQSISLGRNLKAFILRCVLLWPRILRSFRKVWSWYF,18200
10,MISTLAMSLLETPIEPRTHAEICLEFWGIRLCSPITDINLAAFWNYYFKTIAH,45600
11,MISWLLCFFDFRGDFLYGVLFFCTIFCFAVFGFFFFLQPSTFSFTIFFLCFFS,31000
12,MISWLLCFFGFRGGFFYMVFFLICTIFCFAVFGFRFLQLSTFFFHNIFLMFFF,51900
13,MISWLLRFFWLPGGLFFIWCFFSVPFFALRFCSCRHSFFTTFFLCFFYFYFVT,67100
14,MITQILYLDLLHPLHCHFFFFFSFFSSLIVVSVIITRLYFFFFSHLVIFCPFL,54600
15,MITRCHLIIFLFWLLLLLLLFRCWATFLCISAWLFAKQEKQTFCQPCLLIMRV,38200
16,MITRRTGGNSGNWVPSIRVQEGVLTKGFRPINMRSELVRLHEVVILVVGMEMD,47100
17,MITTLFSFLLVFFPFFLFRFFLLLLLLNLFLLLLSHFLSLYHQPISPIPPRHH,74200
18,MITTLYHHVRYILIRQPRRPVSLLDQPAVLNYLYVLLYHTIVTFNILTPAVYW,49600
19,MITVALYIIGRGFFSFFFIFCHFTILVFLFLAAYFFLFFSCPFLLLFYFFWFT,54200
20,MITVLSVIPLLLLLLLLLLLLLLLLLLLLISPLFRLGSLFVFCPYILFRLWWV,42000
21,MITYIILLLFFLLYYSIILFTSFSFSFFITFILHTITTLPVFILSCCSTFFFF,66600

row,Sequence,transcriptional activation domain activity
1,MITYILRLGFDYLPPLALWIAIVLVHYTYVCCFLVVACENTCRWHMVQFNLRH,73300
2,MIVFLFWVIGINLDCNCWFSLFLILLMRVMDLMSYGWIIEVFFFLLNFYYLLF,53700
3,MIVFSPISFVGTLWVVSCCLFFKFPLPLPFPLPLPFFFFVSLFFLYLSRKIRA,28200
4,MIVLCASFFYILSSLSLFFFFLTLPIMHFLPFSRLFIFSCFLFPLYLFTSFFL,31000
5,MIVLVLLFLVFCLLLLVGMVDERGMAGDMYKLYRTPASCRVLALSNPIVRGAW,52800
6,MIVMNQPNYIFDEFAIIISVYISSISNLAFYFGYDFLVLLFLQNLLEFIIMCY,76800
7,MIVRLSSVPVSGCSFVVIEALLDFLVLPLRHFNLFIAPTSFFSHLYVFFFFGR,56700
8,MIVVVLCLPSALTHLGCLFYHDPSSPFALVTFSVSLIIILPNLGVILFGFFNI,48600
9,MIWCSFLLALSWSYFCDLPCFFFFFFFFFFFFFFFADIYCSFLSFKLITPISF,52600
10,MIWREFFLFFLFFFFLFGIYGLRVAGLDYFVYGDLFVIINISYLFFWWVYAIY,45900
11,MIWRYVWYTLVLGCLFCCRPNYSLLVPNTIDLHRLWLGFRFQILFVAWGVYLV,58900
12,MIYACGLICFYFFFFFLYFFPFCISFHIFLFSFLYPSCSFSFLQHCQVGTGVC,48900
13,MIYGWSIFFFFFFFALHVYIRVFLWGRFCLRVVWVRLFLFHFSGWGCNFGGFV,49700
14,MIYLASFLLLTVDSSIWSVPITIFIPYTIYLFPPHTYICVLFARILIFHLLSF,61200
15,MKACLRCLVFLLGCTSPWCFTRYLALEHFTLFWIDADLWWQVYRFSILVLLSY,44400
16,MKAEYITLINLLVHPSFVLWESPLPTLSFFFFFFFFLAWSPFRVFSLFVIPSL,50300
17,MKDSHTARSDAVVFAIAVGRPFFFAAVLLRLLATETLGSSIALGVIGLVFIYC,42400
18,MKELSFFPISISIQRYSHIRWVLLHCTNYLISFVYHCYVIILSVFFFLYIFTA,76900
19,MKEPVDDNVLQEPVPFEDFKFSFGMDPDFSFPLEPTLPTPQLSFMQDPFLLFP,116000
20,MKFCFIVWLSCMCIYFAKVIVVFLIALCLDNIFPFHIPNTKLLIPSTHFMITW,57500
